# Experimental data reported in patent publication US20230203146A1 (Boehringer Ingelheim, published 2023).
# T1: N-terminally FLAG-tagged mouse Ang2 (HEK293T conditioned medium) (mouse, UniProt O35608 19-496)
# T1 construct: may be a nucleotide entry; also called mAng2; FLAG-mAng2
# T1 sequence: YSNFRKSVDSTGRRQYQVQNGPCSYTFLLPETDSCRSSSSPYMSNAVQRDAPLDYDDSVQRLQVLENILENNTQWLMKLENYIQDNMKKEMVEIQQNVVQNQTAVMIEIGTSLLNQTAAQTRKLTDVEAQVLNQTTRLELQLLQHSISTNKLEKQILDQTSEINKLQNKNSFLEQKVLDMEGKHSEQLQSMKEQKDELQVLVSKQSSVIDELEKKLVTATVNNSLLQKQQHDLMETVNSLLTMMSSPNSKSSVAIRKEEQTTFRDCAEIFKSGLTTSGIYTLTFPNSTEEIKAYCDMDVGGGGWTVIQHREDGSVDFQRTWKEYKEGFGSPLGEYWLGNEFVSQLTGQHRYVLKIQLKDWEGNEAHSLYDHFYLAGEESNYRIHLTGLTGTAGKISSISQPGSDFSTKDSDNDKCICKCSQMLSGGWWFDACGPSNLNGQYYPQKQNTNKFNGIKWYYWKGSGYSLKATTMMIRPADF
# B1: VHH 6H05 (VHH)
# VHH: EVQLVESGGGLVQAGGSLRLSCAASGFTFDDYAIGWFRQAPGKEREGVSCISSSDGSTAYADSVKGRFTISSDNAKNTVYLQMNSLKPEDTAVYYCTAVPATRRTPQMVAANVCWLAEYEYDYWGQGTQVTVSS
# notes: also called 006H05; not shown: C-terminal c-myc tag and His6 tag
# B2: VHH 3F02 (VHH)
# VHH: EVQLVESGGGLVQVGDSLRLACAASGRTFSTYLMVGWFRQAPGKEREFAAGIWSSGDTAYADSVKGRFTISRDNAKNTVYLQMNSLKTEDTAVYYCAGSYDGNYYIPGFYKDWGQGTQVTVSS
# notes: also called 003F02; not shown: C-terminal c-myc tag and His6 tag
# B3: VHH 12B03 (VHH)
# VHH: EVQLVESGGGLVQSGGSLRLSCAASGFALDYYTIGWFRQAPGKEREGVSCISGGDTSTYYADSVKGRFTISRDNAKNTVYLQMNSLKPEDTAVYYCATDSAGVPAGPAAVYGSTCSRLEYDYWGQGAQVTVSS
# notes: also called 012B03; not shown: C-terminal c-myc tag and His6 tag
# B4: VHH 10C06 (VHH)
# VHH: EVQLVESGGGLVQAGGSLRLSCVASGFTFDDYAIGWFRQAPGKEREGVSCISSSDGSTYYADSVKGRFTISGDNAKNTVYLQMNSLKPEDTAVYYCAAGITPCSDYTQTYEYDVWGQGTQVTVSS
# notes: also called 010C06; not shown: C-terminal c-myc tag and His6 tag
# B5: VHH 3A07 (VHH)
# VHH: EVQLVESGGGLVQPGGSLRLSCAASGFTLDYDAIGWFRQAPGKEREGVSCITSSDGITYYADSVKGRFTISRDNAKNTVYLQMNSLKPEDTAVYYCATGNRRIYYSDYALACFPYEYDYWGQGTQVTVSS
# notes: also called 003A07; not shown: C-terminal c-myc tag and His6 tag
# B6: VHH 14H02 (VHH)
# VHH: EVQLVESGGGLVQAGGSLRLSCAASGFTFDEYAIGWFRQAPGKEREGVSYISSSDGSTYYADSVKGRVTSSSDNAKNTVYLQMNSLKPEDTAVYYCAARPTLRVRLDNDRHHLLYEYEYDYWGQGTQVTVSS
# notes: also called 014H02; not shown: C-terminal c-myc tag and His6 tag
# B7: VHH 21G10 (VHH)
# VHH: EVQLVESGGGLVQAGGSLRLSCAASGFTLDDYAIGWFRQAPGKEREGVSCISSSDGSTTYADSVKGRFTVSSDNAKNTVYLQMNSLKPEDTAVYYCAAGLRGRYYRGTYSLVCAPYEYDFWGQGTQVTVSS
# notes: also called 021G10; not shown: C-terminal c-myc tag and His6 tag
# B8: VHH 2F04 (VHH)
# VHH: EVQLVESGGGLVQAGGSLRLSCAASGFAFDDHLIGWFRQAPGKEREAVSCISRSAGSTYYADSVKGRFTISSDNAKNTVYLQMNSLKADDTAVYYCAAGPAWGRPASPLPYEYDYWGQGTQVTVSS
# notes: also called 002F04; not shown: C-terminal c-myc tag and His6 tag
# B9: VHH 16G09 (VHH)
# VHH: EVQLVESGGGLVQAGGSLRLVCSASGIDFSINAMAWYRQAPGKQREWVAFMINDSSTDYTDSVKGRFTISRDSTKNILYLQMNNLNVEDTAVYYCNTAYEQHTYWGQGTQVTVSS
# notes: also called 016G09; not shown: C-terminal c-myc tag and His6 tag
# Target: T1, N-terminally FLAG-tagged mouse Ang2 …
# Experiment: competition ELISA, FLAG-mAng2 on coated mTie2-Fc
# Experimental: In brief, 2 μg/mL of recombinant mouse Tie2-Fc or cyno Tie2-Fc is coated overnight at 4° C. in a 96-well MaxiSorp plate (Nunc, Wiesbaden, Germany). Coated wells are blocked with a 1% casein solution.
row,Binder,IC50 [nM]
1,B1,7.7
2,B2,32.7
3,B3,6.7
4,B4,45.2
5,B5,99.3
6,B6,143
7,B7,16.8
8,B8,57.4
9,B9,19.4
